Source: patent CN102875678A (WUXI PROGRAMMED ARTIFICIAL MOLECULAR EVOLUTION CO LTD, dated 2013)

How the values were obtained:
重组人CD20蛋白 (human) [1] = molecular target: 重组人CD20蛋白 (human) (UniProt P11836); assay: Friguet method, full-length antibody and human CD20
重组人CD20蛋白 (human) [2] = molecular target: 重组人CD20蛋白 (human) (UniProt P11836); assay: Friguet method, Fab and human CD20 in solution, ELISA on immobilised human CD20
[3] = molecular target: hCD20 on B cell lines (Ramos, DHL-4, Daudi, Raji) (human) (UniProt P11836); assay: cell-based or functional assay
重组人CD20蛋白 = molecular target: T1, 重组人CD20蛋白 (human, UniProt P11836 1-297, limits assumed); assay: Friguet method, full-length antibody and human CD20
T1 construct: also called hCD20
T1 sequence (looked up): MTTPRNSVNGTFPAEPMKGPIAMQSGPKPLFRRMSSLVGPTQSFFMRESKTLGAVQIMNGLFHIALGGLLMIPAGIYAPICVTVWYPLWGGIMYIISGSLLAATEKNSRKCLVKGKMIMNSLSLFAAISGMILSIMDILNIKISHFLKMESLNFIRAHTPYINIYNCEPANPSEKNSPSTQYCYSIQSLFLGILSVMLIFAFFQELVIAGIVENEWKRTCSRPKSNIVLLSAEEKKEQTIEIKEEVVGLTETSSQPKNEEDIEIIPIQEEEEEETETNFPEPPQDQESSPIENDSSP

C2B8 (即Rituxan), full length (antibody) showed a Kd (重组人CD20蛋白 (human) [1]) of 3.51 nM.

For C2B8 Fab, the Kd (重组人CD20蛋白 (human) [2]) was 1.83 nM.

Work on “2F2 (即HuMax-CD20), full length (antibody)” yielded an ADCC靶细胞裂解 (Raji细胞, MNC效应细胞, 51Cr释放) [3] of 35%, a CDC细胞裂解比例 (Daudi和Raji细胞, 10μg/ml抗体, 人血清) [3] of over 80% and a Kd (重组人CD20蛋白) of 0.121 nM.

B1: 全长8G3 (F8G3) (antibody)
chain 1: EVQLVESGGGLVQPGESLRLSCAGSGFTFNDYAMHWVRQMPGKGLEWVSTIYPW
chain 2: EIVLTQSPATLSLSPGERATLSCRASQFVGFYIHWYQQKPGQAPRLLIYAASERATGVPSRFSGSGSGTDFTLTISSLEPEDFAVYYCQQWLNNPFTFGQGTRLEII
B1 gave a Kd (重组人CD20蛋白) of 0.037 nM.
